Data taken from patent publication US20240092901A1.

How the values were obtained:
Experiment in all cases: ELISA
[1] = target: human Ror2 (receptor tyrosine kinase-like orphan receptor 2) (human) (UniProt Q01974)
mouse Ror2 (mouse) = mouse Ror2 (mouse) (UniProt Q9Z138)
[2] = target: cynomolgus Ror2 (cynomolgus)

mouse Ror2 (mouse), sequence (Q9Z138 34-403 limits assumed): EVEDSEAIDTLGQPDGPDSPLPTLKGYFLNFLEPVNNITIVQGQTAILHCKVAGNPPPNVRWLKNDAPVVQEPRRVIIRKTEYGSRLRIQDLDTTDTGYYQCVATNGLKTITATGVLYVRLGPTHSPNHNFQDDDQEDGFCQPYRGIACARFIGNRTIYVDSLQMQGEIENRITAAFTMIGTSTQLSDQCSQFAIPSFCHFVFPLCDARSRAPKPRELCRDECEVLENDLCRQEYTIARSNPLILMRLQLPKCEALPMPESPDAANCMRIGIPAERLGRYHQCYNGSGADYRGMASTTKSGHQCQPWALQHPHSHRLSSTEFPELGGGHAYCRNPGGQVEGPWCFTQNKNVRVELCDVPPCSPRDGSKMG
human Ror2 (receptor tyrosine kinase-like orphan receptor 2) (human), sequence (Q01974 34-403 limits assumed): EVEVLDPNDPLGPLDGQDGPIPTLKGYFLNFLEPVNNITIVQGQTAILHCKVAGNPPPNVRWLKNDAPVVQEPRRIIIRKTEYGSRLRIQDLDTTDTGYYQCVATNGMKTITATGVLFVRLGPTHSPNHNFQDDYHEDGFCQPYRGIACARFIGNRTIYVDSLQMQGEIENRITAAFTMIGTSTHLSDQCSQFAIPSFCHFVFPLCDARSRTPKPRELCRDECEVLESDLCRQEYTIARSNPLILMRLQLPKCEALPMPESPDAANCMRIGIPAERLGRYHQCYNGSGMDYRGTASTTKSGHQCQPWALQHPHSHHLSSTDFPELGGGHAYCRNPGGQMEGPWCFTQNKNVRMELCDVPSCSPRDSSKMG

EC50 [1]: 0.201 µg/mL
EC50 (mouse Ror2 (mouse)): 7.65 µg/mL
EC50 [2]: 0.327 µg/mL
B1: conditionally active antibody BAP048 (antibody, from a related filing, V domains shown)
VH: EVQLVQSGAEVKKPGESLRISCKGSGYTFTEYTMHWVRQAPGQGLEWMGGINTNNGGTGYNQKFKGRVTISADKSISTAYLQWSSLKASDTAMYYCAHGSLYSYGNSYFDYWGQGTLVTVSS
VL: AIQLTQSPSSLSASVGDRVTITCSATSSVSYMHWYLQKPGQSPQLLIYGTSNLASGVPDRFSGSGSGTDFTLKISRVEAEDVGVYYCQQRSSYPFTFGQGTKVEIK
